The supplement of paper PMC9876800

System: peptide library, one residue held at a place counted from the S/T acceptor
Experiment: relative phosphorylation of the sub-library (ratio to the mean residue at this position); higher = residue favoured
How it was run: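 Relative sub-library phosphorylation, a ratio to the mean residue at that position, was obtained by phosphorimaging and densitometry of spots on streptavidin membranes. Before capture, purified recombinant kinases were incubated for 90 min under kinase-specific conditions with 50 μM biotinylated degenerate peptide sub-libraries and 50 μM ATP spiked with γ-32P-ATP. Each sub-library fixed one residue at one position around a central Ser/Thr.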

MAP3K15, construct: aa631-922, human, sequence (Q6ZN16 631-922, looked up): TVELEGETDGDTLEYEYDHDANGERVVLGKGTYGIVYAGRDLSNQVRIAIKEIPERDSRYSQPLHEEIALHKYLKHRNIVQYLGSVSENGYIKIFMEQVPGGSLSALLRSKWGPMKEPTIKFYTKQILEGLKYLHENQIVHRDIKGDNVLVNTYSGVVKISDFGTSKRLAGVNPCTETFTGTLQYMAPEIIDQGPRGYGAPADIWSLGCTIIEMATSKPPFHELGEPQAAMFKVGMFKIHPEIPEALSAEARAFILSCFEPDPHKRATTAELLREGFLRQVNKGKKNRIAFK
CDK12, construct: aa714-1063, human, sequence (Q9NYV4 714-1063, looked up): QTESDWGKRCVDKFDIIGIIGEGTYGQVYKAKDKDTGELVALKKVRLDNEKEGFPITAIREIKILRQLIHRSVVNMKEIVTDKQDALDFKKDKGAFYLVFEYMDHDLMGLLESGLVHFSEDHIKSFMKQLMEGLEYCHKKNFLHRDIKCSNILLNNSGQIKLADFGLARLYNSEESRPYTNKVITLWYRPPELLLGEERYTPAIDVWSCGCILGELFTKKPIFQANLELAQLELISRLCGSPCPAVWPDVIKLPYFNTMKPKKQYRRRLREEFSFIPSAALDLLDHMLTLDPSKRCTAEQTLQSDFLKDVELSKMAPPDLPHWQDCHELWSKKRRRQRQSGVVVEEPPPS

MAP3K15, construct: aa631-922, human (from UniProt Q6ZN16)
relative phosphorylation
Settings | at +1 | at +2 | at +3 | at +4 | at -1 | at -2 | at -3 | at -4 | at -5
A fixed | 0.514 | 0.74 | 1.02 | 0.926 | 1.01 | 1.79 | 1.14 | 1.02 | 0.99
D fixed | 0.2 | 0.473 | 0.377 | 0.494 | 0.459 | 0.498 | 0.88 | 0.771 | 0.79
E fixed | 0.257 | 0.337 | 0.401 | 0.534 | 0.471 | 0.513 | 0.73 | 0.739 | 0.743
F fixed | 1.94 | 1.79 | 0.942 | 0.898 | 0.745 | 0.735 | 0.771 | 0.855 | 1.1
G fixed | 0.39 | 0.733 | 1.07 | 1.07 | 2.13 | 1.26 | 1.04 | 1.29 | 1.24
H fixed | 1.08 | 1.01 | 1.04 | 1.04 | 0.94 | 0.852 | 1.07 | 0.963 | 1.17
I fixed | 1.94 | 0.567 | 1.09 | 1.13 | 0.415 | 0.859 | 0.687 | 0.668 | 0.761
K fixed | 0.39 | 1.48 | 1.14 | 1.82 | 1.43 | 0.864 | 1.18 | 1.06 | 1.05
L fixed | 1.41 | 0.76 | 1.01 | 0.885 | 0.828 | 0.983 | 0.799 | 0.788 | 0.759
M fixed | 1.18 | 0.952 | 1.02 | 0.926 | 0.963 | 1.07 | 0.837 | 0.896 | 0.929
N fixed | 0.439 | 0.782 | 0.971 | 0.91 | 1.28 | 1.26 | 1.18 | 1.19 | 0.988
P fixed | 0.352 | 0.676 | 1.08 | 0.971 | 1.15 | 1.63 | 1.6 | 1.37 | 1.2
Q fixed | 0.604 | 0.79 | 0.917 | 1.1 | 1.07 | 1.13 | 1.26 | 1.1 | 1.08
R fixed | 0.481 | 1.7 | 1.39 | 1.2 | 1.73 | 0.885 | 1.21 | 1.15 | 1.03
V fixed | 1.84 | 0.617 | 1.12 | 0.866 | 0.524 | 1.13 | 0.776 | 0.888 | 1.24
W fixed | 1.83 | 1.02 | 1.19 | 1.15 | 0.745 | 0.693 | 0.917 | 1.08 | 1.02
Y fixed | 2.16 | 2.58 | 1.24 | 1.07 | 1.12 | 0.848 | 0.925 | 1.18 | 0.915
pThr fixed | 0.588 | 0.497 | 0.73 | 0.394 | 0.639 | 1.06 | 1.04 | 0.928 | 1.09
pTyr fixed | 0.529 | 0.403 | 0.951 | 0.582 | 0.832 | 0.888 | 1.02 | 0.936 | 1.2

SRPK3, construct: Full length, human (from UniProt Q9UPE1)
relative phosphorylation
Settings | at +1 | at +2 | at +3 | at +4 | at -1 | at -2 | at -3 | at -4 | at -5
A fixed | 0.905 | 1.14 | 0.591 | 0.865 | 1.08 | 1.46 | 0.594 | 0.904 | 0.946
D fixed | 0.388 | 1.38 | 0.427 | 0.767 | 0.598 | 3.18 | 0.543 | 0.699 | 0.69
E fixed | 0.501 | 1.15 | 0.377 | 0.67 | 0.731 | 1.53 | 0.451 | 0.818 | 0.718
F fixed | 0.56 | 0.736 | 0.505 | 0.848 | 0.727 | 0.782 | 0.389 | 0.825 | 1.1
G fixed | 0.767 | 0.962 | 0.719 | 1.03 | 1.05 | 0.997 | 0.429 | 0.929 | 1.05
H fixed | 0.649 | 1.54 | 0.577 | 0.999 | 1.3 | 0.804 | 0.444 | 0.944 | 1.09
I fixed | 0.877 | 0.777 | 0.413 | 0.739 | 0.696 | 0.471 | 0.351 | 0.865 | 0.92
K fixed | 0.963 | 1.08 | 1.06 | 1.33 | 1.34 | 0.908 | 0.724 | 1.36 | 1.33
L fixed | 1.09 | 0.601 | 0.41 | 0.846 | 0.924 | 0.551 | 0.346 | 0.791 | 0.785
M fixed | 1.01 | 0.796 | 0.467 | 0.899 | 1.02 | 0.666 | 0.403 | 0.859 | 0.906
N fixed | 0.674 | 1.31 | 0.592 | 1.04 | 0.833 | 0.938 | 0.417 | 0.83 | 0.861
P fixed | 3.97 | 0.922 | 1.39 | 1.02 | 1.58 | 0.762 | 0.387 | 0.99 | 0.74
Q fixed | 0.926 | 0.905 | 0.635 | 1.07 | 1.07 | 0.729 | 0.568 | 0.952 | 0.777
R fixed | 1.48 | 1.35 | 7.34 | 2.07 | 1.76 | 1.31 | 9.8 | 2.63 | 2.11
V fixed | 1.13 | 0.909 | 0.456 | 0.745 | 0.898 | 0.547 | 0.34 | 0.852 | 0.897
W fixed | 0.574 | 0.701 | 0.541 | 1.18 | 0.579 | 0.638 | 0.39 | 0.881 | 0.977
Y fixed | 0.537 | 0.734 | 0.496 | 0.876 | 0.818 | 0.723 | 0.429 | 0.867 | 1.1
pThr fixed | 0.601 | 1.02 | 0.572 | 0.874 | 0.69 | 1.01 | 0.644 | 1.13 | 0.863
pTyr fixed | 0.746 | 0.876 | 0.702 | 0.924 | 1.38 | 1.79 | 1.29 | 2.21 | 1.15

CDK12, construct: aa714-1063, human (from UniProt Q9NYV4)
relative phosphorylation
Settings | at +1 | at +2 | at +3 | at +4 | at -1 | at -2 | at -3 | at -4 | at -5
A fixed | 0.323 | 0.895 | 0.799 | 0.848 | 1.09 | 1.19 | 1.04 | 1.11 | 1.13
D fixed | 0.154 | 0.546 | 0.392 | 0.912 | 0.38 | 0.47 | 0.629 | 0.861 | 0.879
E fixed | 0.155 | 0.5 | 0.446 | 0.923 | 0.438 | 0.456 | 0.707 | 0.9 | 0.735
F fixed | 0.341 | 0.984 | 0.553 | 0.891 | 0.844 | 0.667 | 0.778 | 1.07 | 1.21
G fixed | 0.715 | 1.28 | 0.854 | 1.43 | 1.58 | 1.7 | 2.58 | 1.27 | 1.09
H fixed | 0.261 | 1.21 | 1.79 | 1.44 | 0.876 | 0.811 | 0.897 | 1.04 | 1.01
I fixed | 0.309 | 0.911 | 0.929 | 0.828 | 0.364 | 0.973 | 0.971 | 0.891 | 0.868
K fixed | 0.27 | 1.34 | 0.977 | 0.804 | 1.01 | 0.659 | 0.63 | 0.832 | 0.847
L fixed | 0.36 | 0.853 | 0.545 | 0.765 | 0.834 | 0.863 | 0.754 | 0.946 | 0.939
M fixed | 0.357 | 1.16 | 0.523 | 0.832 | 1.65 | 1.28 | 0.819 | 1.04 | 0.924
N fixed | 0.227 | 0.992 | 0.721 | 0.973 | 0.801 | 0.713 | 0.686 | 0.893 | 0.82
P fixed | 12.1 | 0.747 | 1.26 | 0.992 | 1.08 | 1.84 | 1.33 | 1.06 | 1.28
Q fixed | 0.243 | 0.828 | 0.709 | 0.889 | 0.982 | 0.738 | 0.637 | 0.763 | 0.883
R fixed | 0.281 | 1.77 | 3.97 | 0.962 | 2.34 | 1.58 | 1.75 | 1.02 | 1.03
V fixed | 0.319 | 0.846 | 0.71 | 0.73 | 0.467 | 0.906 | 0.762 | 0.784 | 0.899
W fixed | 0.283 | 0.933 | 0.881 | 1.58 | 1.1 | 1.2 | 0.927 | 1.35 | 1.19
Y fixed | 0.274 | 1.2 | 0.934 | 1.21 | 1.17 | 0.956 | 1.1 | 1.19 | 1.27
pThr fixed | 0.363 | 0.528 | 0.566 | 0.999 | 0.336 | 0.48 | 0.83 | 0.846 | 0.975
pTyr fixed | 0.378 | 0.504 | 0.859 | 1.29 | 1.16 | 0.719 | 0.908 | 0.998 | 0.975
